Columns and labels:
[1] = molecular target: T1, hCD32a-H131 (FcγRIIA-H131) (human, UniProt P12318 36-218, limits assumed); assay: Fcγ receptor binding as % of theoretical maximum response (% Rmax), two lots, two concentrations (10 µM, 1 µM); no negative control shown
T1 sequence (looked up): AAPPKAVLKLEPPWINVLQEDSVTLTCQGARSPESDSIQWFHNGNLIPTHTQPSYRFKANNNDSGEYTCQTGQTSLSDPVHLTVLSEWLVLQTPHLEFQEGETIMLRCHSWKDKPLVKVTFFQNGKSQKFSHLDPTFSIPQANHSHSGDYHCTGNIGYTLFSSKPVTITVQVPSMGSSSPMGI

[2] = molecular target: hCD16b-NA2 (FcγRIIIB-NA2) (human, UniProt O75015 17-200, limits assumed); assay: as above
[3] = molecular target: hCD16a-V158 (FcγRIIIA-V158) (human, UniProt P08637 17-208); assay: as above
[4] = molecular target: T2, huTIGIT-muFc fusion protein (human; mouse, UniProt Q495A1 22-141); assay: blockade of TIGIT-mFc (at its EC90, 14.1 nM) binding to P815 cells over-expressing human PVR; competitor: human PVR; P815 cells over-expressing human PVR; TIGIT-mFc at EC90 14.1 nM
T2 construct: also called TIGIT-mFc; not shown: mouse IgG2a Fc, at the C-terminus of the TIGIT part
T2 sequence: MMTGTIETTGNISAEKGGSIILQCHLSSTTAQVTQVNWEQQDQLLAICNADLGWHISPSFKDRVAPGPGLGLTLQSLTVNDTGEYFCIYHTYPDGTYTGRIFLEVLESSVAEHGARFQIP

[5] = molecular target: T3, human TIGIT (soluble, SPR; construct not stated) (human, UniProt Q495A1 22-141, limits assumed); assay: SPR
T3 construct: whole entry named; also called huTIGIT
T3 sequence: T2 sequence

[6] = molecular target: T2, huTIGIT-muFc fusion protein; assay: blockade of TIGIT-mFc (at its EC90, 12.8 nM) binding to P815 cells over-expressing human Nectin-2; competitor: human Nectin-2; P815 cells over-expressing human Nectin-2; TIGIT-mFc at EC90 12.8 nM
human TIGIT on cells [7] = molecular target: T4, human TIGIT on cells (human, UniProt Q495A1 22-244); assay: method not stated; follows the sentence on TIGIT expressed on CHO cells; human TIGIT; KD, method not stated
T4 construct: also called huTIGIT on Jurkat cells; Jurkat/hTIGIT
T4 sequence: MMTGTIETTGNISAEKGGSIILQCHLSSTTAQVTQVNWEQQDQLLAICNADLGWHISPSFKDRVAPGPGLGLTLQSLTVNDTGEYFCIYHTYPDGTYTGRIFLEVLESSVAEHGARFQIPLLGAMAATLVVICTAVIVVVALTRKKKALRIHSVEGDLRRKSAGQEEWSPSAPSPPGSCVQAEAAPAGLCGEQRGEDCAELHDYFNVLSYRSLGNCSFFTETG

[8] = molecular target: T5, cynomolgus monkey TIGIT on cells (cynomolgus monkey, UniProt A0A7N9I9V4 89-312); assay: method not stated; follows the sentence on TIGIT expressed on CHO cells; monkey TIGIT; KD, method not stated
T5 construct: whole, on cells; also called TIGIT from cynomolgus monkeys expressed on CHO cells; cyno TIGIT on primary cells

human TIGIT on cells [9] = molecular target: T4, human TIGIT on cells; assay: binding to human CD8+ T cells; human CD8+ T cells
[10] = molecular target: T5, cynomolgus monkey TIGIT on cells; assay: binding to monkey CD8+ T cells; monkey CD8+ T cells; lower end of the range
[11] = molecular target: T5, cynomolgus monkey TIGIT on cells; assay: binding to monkey CD8+ T cells; monkey CD8+ T cells; upper end of the range

- binding result [1]: no binding (tested: 10 µM)
- binding result [2]: no binding (tested: 10 µM)
- binding result [3]: no binding (tested: 10 µM)
- IC50 [4]: 15.4 nM
- Kd [5]: 0.07 nM
- koff [5]: 0.00013 s⁻¹
- kon [5]: 2e+06 M⁻¹ s⁻¹
- IC50 [6]: 5.72 nM
- Kd (human TIGIT on cells [7]): 0.09 nM
- Kd [8]: 0.07 nM
- EC50 (human TIGIT on cells [9]): 0.55 nM
- EC50 [10]: ≥ 0.28 nM
- EC50 [11]: ≤ 0.58 nM
B1: 22G2 IgG1.1f (antibody)
heavy: QVHLQESGPGLVKPSETLSLTCTVSGGSVSSGIYYWSWIRQPPGKGLEWIGYIYYSGSTNYNPSLKSRVTISVDTSKNQFSLKLSSVTAADTAVYYCARDYYVSGNYYNVDYYFFGVDVWGQGTTVTVSSASTKGPSVFPLAPSSKSTSGGTAALGCLVKDYFPEPVTVSWNSGALTSGVHTFPAVLQSSGLYSLSSVVTVPSSSLGTQTYICNVNHKPSNTKVDKRVEPKSCDKTHTCPPCPAPEAEGAPSVFLFPPKPKDTLMISRTPEVTCVVVDVSHEDPEVKFNWYVDGVEVHNAKTKPREEQYNSTYRVVSVLTVLHQDWLNGKEYKCKVSNKALPSSIEKTISKAKGQPREPQVYTLPPSREEMTKNQVSLTCLVKGFYPSDIAVEWESNGQPENNYKTTPPVLDSDGSFFLYSKLTVDKSRWQQGNVFSCSVMHEALHNHYTQKSLSLSPG
light: not shown
notes: effectorless IgG1.1f (L234A, L235E, G237A, A330S, P331S, EU numbering); also called anti-TIGIT mAb 22G2 IgG1.1f; antibody 22G2 IgG1.1f; copies: 2 + 2

From US20190112375A1 (Bristol-Myers Squibb, published 2019)
